{
  "source": "paper PMC6590058",
  "binders": {"B1": {"name": "HAMP-BRE-25 (dsDNA)", "DNA 1": "TCTCCCGCCTTTTCGGCGCCACCAC", "DNA 2": "GTGGTGGCGCCGAAAAGGCGGGAGA"}, "B2": {"name": "IFI6-ISRE-25 (dsDNA)", "DNA 1": "GAGAGGGGAAAATGAAACTGCAGAG", "DNA 2": "CTCTGCAGTTTCATTTTCCCCTCTC"}},
  "key": {"IRF1": {"molecular_target": "T1, IRF1 (UniProt P10914 1-325)", "T1 sequence": "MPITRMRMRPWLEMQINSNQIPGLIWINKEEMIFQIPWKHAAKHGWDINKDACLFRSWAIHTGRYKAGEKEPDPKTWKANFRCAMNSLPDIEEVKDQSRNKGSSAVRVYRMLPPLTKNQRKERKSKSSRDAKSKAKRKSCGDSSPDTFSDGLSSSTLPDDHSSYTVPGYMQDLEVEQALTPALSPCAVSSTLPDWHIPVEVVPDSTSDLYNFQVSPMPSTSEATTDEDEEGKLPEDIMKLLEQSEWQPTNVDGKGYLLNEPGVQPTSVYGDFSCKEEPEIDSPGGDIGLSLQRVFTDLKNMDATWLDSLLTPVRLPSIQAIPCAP", "experiment": "EMSA"}, "SMAD4": {"molecular_target": "SMAD4 (UniProt Q13485 1-552)", "sequence (Q13485 whole entry)": "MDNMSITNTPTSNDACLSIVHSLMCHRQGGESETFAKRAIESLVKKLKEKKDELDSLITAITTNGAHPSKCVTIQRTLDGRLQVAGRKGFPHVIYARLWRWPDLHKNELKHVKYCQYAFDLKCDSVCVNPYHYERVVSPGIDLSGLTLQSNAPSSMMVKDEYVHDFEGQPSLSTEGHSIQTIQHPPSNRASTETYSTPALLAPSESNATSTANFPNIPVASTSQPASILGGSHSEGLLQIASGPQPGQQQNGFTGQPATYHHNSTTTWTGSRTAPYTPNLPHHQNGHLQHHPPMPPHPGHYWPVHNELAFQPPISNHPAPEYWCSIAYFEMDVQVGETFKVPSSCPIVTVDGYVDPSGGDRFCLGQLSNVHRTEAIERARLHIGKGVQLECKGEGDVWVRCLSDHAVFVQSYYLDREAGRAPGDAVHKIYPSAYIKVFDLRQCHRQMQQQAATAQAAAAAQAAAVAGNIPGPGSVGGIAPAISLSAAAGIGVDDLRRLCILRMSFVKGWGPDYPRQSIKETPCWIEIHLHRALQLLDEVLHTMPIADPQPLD", "experiment": "EMSA"}},
  "data": [
    {"binder": "B1", "values": [
      {"measurement": "binding result", "setting": "IRF1", "value": "no binding"},
      {"measurement": "binding result", "setting": "SMAD4", "value": "binds"}
    ]},
    {"binder": "B2", "values": [
      {"measurement": "binding result", "setting": "IRF1", "value": "binds"},
      {"measurement": "binding result", "setting": "SMAD4", "value": "no binding"}
    ]}
  ]
}
